These results are taken from article PMC11980035.

This experiment has as its target PRC2^amKR: PRC2 with EZH2 K510R, K514R, K515R (am-loop lysines mutated to arginines) (human) (UniProt Q15910).

The substance “PRC2^CXC: PRC2 with EZH2 K568A/Q570A/K574A/Q575A in the CXC domain, automethylated (from UniProt Q15910-2 1-751; Q15022 80-685; O75530 1-441; Q09028 1-425; Q6ZN18 1-517) (complex)” yielded an H3K27me3 generated by PRC2^amKR on mononucleosomes (HMTase assay, western blot) with 400 nM PRC2^CXC added of 50%.
